Laboratory results reported in patent publication US20120100561.

Columns and labels:
[1] = target: Myc-RhoC (N-terminal Myc epitope-tagged full-length human RhoC)
[2] = target: T1, phosphoinositide-dependent kinase-1 (PDK1), O15530
T1 chain: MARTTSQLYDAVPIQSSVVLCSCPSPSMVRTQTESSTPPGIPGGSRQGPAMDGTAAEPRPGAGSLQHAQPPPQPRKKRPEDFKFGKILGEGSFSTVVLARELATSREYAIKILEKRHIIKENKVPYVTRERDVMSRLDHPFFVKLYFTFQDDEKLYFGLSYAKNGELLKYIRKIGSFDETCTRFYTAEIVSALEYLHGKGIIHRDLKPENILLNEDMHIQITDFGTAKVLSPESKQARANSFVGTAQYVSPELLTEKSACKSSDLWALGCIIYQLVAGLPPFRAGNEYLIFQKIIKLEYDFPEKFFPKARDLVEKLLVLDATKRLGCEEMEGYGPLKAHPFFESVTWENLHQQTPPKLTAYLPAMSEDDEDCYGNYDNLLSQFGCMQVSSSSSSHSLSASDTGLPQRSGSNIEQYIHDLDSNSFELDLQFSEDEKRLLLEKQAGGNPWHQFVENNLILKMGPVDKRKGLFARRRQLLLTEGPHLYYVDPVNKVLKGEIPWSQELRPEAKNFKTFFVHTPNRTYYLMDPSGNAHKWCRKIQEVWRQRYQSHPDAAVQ

Myc-RhoC (N-terminal Myc epitope-tagged full-length human RhoC), sequence (chain, as listed by the source): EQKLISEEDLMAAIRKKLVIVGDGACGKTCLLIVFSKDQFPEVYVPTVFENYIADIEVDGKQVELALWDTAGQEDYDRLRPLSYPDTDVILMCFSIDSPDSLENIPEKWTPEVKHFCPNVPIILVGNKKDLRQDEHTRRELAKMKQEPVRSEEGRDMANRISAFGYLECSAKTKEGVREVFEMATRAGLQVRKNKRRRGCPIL

B1: Flag-PKN3 wt (N-terminal Flag epitope-tagged full-length kinase active human PKN3) (protein)
chain: DYKDDDKMEEGAPRQPGPSQWPPEDEKEVIRRAIQKELKIKEGVENLRRVATDRRHLGHVQQLLRSSNRRLEQLHGELRELHARILLPGPGPGPAEPVASGPRPWAEQLRARHLEALRRQLHVELKVKQGAENMTHTCASGTPKERKLLAAAQQMLRDSQLKVALLRMKISSLEASGSPEPGPELLAEELQHRLHVEAAVAEGAKNVVKLLSSRRTQDRKALAEAQAQLQESSQKLDLLRLALEQLLEQLPPAHPLRSRVTRELRAAVPGYPQPSGTPVKPTALTGTLQVRLLGCEQLLTAVPGRSPAAALASSPSEGWLRTKAKHQRGRGELASEVLAVLKVDNRVVGQTGWGQVAEQSWDQTFVIPLERARELEIGVHWRDWRQLCGVAFLRLEDFLDNACHQLSLSLVPQGLLFAQVTFCDPVIERRPRLQRQERIFSKRRGQDFLRASQMNLGMAAWGRLVMNLLPPCSSPSTISPPKGCPRTPTTLREASDPATPSNFLPKKTPLGEEMTPPPKPPRLYLPQEPTSEETPRTKRPHMEPRTRRGPSPPASPTRKPPRLQDFRCLAVLGRGHFGKVLLVQFKGTGKYYAIKALKKQEVLSRDEIESLYCEKRILEAVGCTGHPFLLSLLACFQTSSHACFVTEFVPGGDLMMQIHEDVFPEPQARFYVACVVLGLQFLHEKKIIYRDLKLDNLLLDAQGFLKIADFGLCKEGIGFGDRTSTFCGTPEFLAPEVLTQEAYTRAVDWWGLGVLLYEMLVGECPFPGDTEEEVFDCIVNMDAPYPGFLSVQGLEFIQKLLQKCPEKRLGAGEQDAEEIKVQPFFRTTNWQALLARTIQPPFVPTLCGPADLRYFEGEFTGLPPALTPPAPHSLLTARQQAAFRDFDFVSERFLEP
[1]
  kinase activity of the anti-Flag immunoprecipitate toward the PKN3 substrate (GSK3α-derived fragment, SEQ ID NO:1), Western blot: the kinase activity is greatest for the PPRC complex than either PKN3 alone, or PKN3 and RhoC combined
[2]
  kinase activity of the anti-Flag immunoprecipitate toward the PKN3 substrate (GSK3α-derived fragment, SEQ ID NO:1), Western blot: the kinase activity is greatest for the PPRC complex than either PKN3 alone, or PKN3 and RhoC combined
